Consider 94 variants from the supplement of paper PMC10567573.

Sequences and labels used below:
B1: ZNF263 (parent)
chain: HLTRHQRTHTGEKPYKCTLCGENF
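Also: lentivirally expressed fusions sorted by FACS into six bins by GFP to DsRed ratio, PSI derived from sequencing read proportions per bin multiplied by bin number.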

The series covers variants of B1. Description: protein stability index of a GFP-peptide fusion (GPS, HEK-293T) (PSI 1-6); higher = more stable. The conditions noted are these: c terminus: a fixed tail appended.
On to HLCRHQRTHTGEKPYKCTLCGENF [T3C], for which the protein stability index amounted to 3.47.

For the variant HLERHQRTHTGEKPYKCTLCGENF [T3E], the protein stability index came out at 3.29.

HLDRHQRTHTGEKPYKCTLCGENF [T3D]: the protein stability index stood at 3.77.

For HLGRHQRTHTGEKPYKCTLCGENF [T3G], the protein stability index was found to be 2.3.

Consider HLPRHQRTHTGEKPYKCTLCGENF [T3P], for which the protein stability index worked out at 2.48.

In the case of HLYRHQRTHTGEKPYKCTLCGENF [T3Y], the protein stability index was determined as 2.36.

As for HLHRHQRTHTGEKPYKCTLCGENF [T3H], the protein stability index is 3.4.

Turning to HLKRHQRTHTGEKPYKCTLCGENF [T3K], the protein stability index amounted to 3.1.

On to HLTMHQRTHTGEKPYKCTLCGENF [R4M], for which the protein stability index was determined as 2.83.

For the variant HLTVHQRTHTGEKPYKCTLCGENF [R4V], the protein stability index was 3.35.

With HLTWHQRTHTGEKPYKCTLCGENF [R4W], the protein stability index is 2.5.

For HLTPHQRTHTGEKPYKCTLCGENF [R4P], the protein stability index came out at 3.76.

As for HLTIHQRTHTGEKPYKCTLCGENF [R4I], the protein stability index was 2.61.

With HLTAHQRTHTGEKPYKCTLCGENF [R4A], the protein stability index amounted to 3.43.

As to HLTRHQRTHTGEKPYECTLCGENF [K16E], the protein stability index was 3.82.

In the case of HLTRHQRTHTGEKPYFCTLCGENF [K16F], the protein stability index turned out to be 2.7.

With HLTRHQRTHTGEKPYDCTLCGENF [K16D], the protein stability index was 3.74.

In the case of HLTRHQRTHTGEKPYYCTLCGENF [K16Y], the protein stability index was found to be 2.52.

With HLTRHQRTHTGEKPYPCTLCGENF [K16P], the protein stability index amounted to 3.32.

Take HLTRHQRTHTGEKPYSCTLCGENF [K16S]: the protein stability index turned out to be 3.19.

HLTRHQRTHTGEKPYRCTLCGENF [K16R]: the protein stability index stood at 2.87.

In the case of HLTRHQRTHTGEKPYCCTLCGENF [K16C], the protein stability index was 2.83.

HLTRHQRTHTGEKPYLCTLCGENF [K16L]: the protein stability index turned out to be 2.33.

For the variant HLTRHQRTHTGEKPYICTLCGENF [K16I], the protein stability index came to 2.97.

For the variant HLTRHQRTHTGEKPYKCTLCGEHF [N23H], the protein stability index was 1.98.

With HLTRHQRTHTGEKPYKCTLCGESF [N23S], the protein stability index was 2.7.

Regarding HLTRHQRTHTGEKPYKCTLCGELF [N23L], the protein stability index worked out at 2.34.

For HLTRHQRTHTGEKPYKCTLCGEMF [N23M], the protein stability index stood at 2.3.

As for HLTRHQRTHTGEKPYKCTLCGEKF [N23K], the protein stability index turned out to be 3.22.

For HLTRHQRTHTGEKPYKCTLCGEQF [N23Q], the protein stability index turned out to be 2.63.

As for HLTRHQRTHTNEKPYKCTLCGENF [G11N], the protein stability index amounted to 2.98.

Consider HLTRHQRTHTYEKPYKCTLCGENF [G11Y], for which the protein stability index amounted to 2.17.

For HLTRHQRTHTLEKPYKCTLCGENF [G11L], the protein stability index stood at 2.99.

Consider HLTRHQRTHTCEKPYKCTLCGENF [G11C], for which the protein stability index was found to be 4.07.

On to HLTRHQRTHTKEKPYKCTLCGENF [G11K], for which the protein stability index came to 3.06.

In the case of HLTRHQRTHTREKPYKCTLCGENF [G11R], the protein stability index worked out at 2.94.

Take HLTRHQRTHTQEKPYKCTLCGENF [G11Q]: the protein stability index came out at 3.55.

For the variant HLTRHQRTHTTEKPYKCTLCGENF [G11T], the protein stability index was found to be 3.01.

For HLTRHQRTHTGEKPYKCTLCGTNF [E22T], the protein stability index came out at 2.58.

Take HLTRHQRTHTGEKPYKCTLCGRNF [E22R]: the protein stability index was 2.29.

For the variant HLTRHQRTHTGEKPYKCTLCGYNF [E22Y], the protein stability index was 2.39.

On to HLTRHQRTHTGEKPYKCTLCGSNF [E22S], for which the protein stability index came to 2.9.

HLTRHQRTHTGEKPYKCTLCGMNF [E22M]: the protein stability index turned out to be 2.31.

For the variant HLTRHQRTHTGEKPYKCTLCGANF [E22A], the protein stability index was found to be 2.54.

In the case of HLTRHQRTHTGEKPYKCTLCGHNF [E22H], the protein stability index came to 3.43.

On to HLTRHQRTHTGEKKYKCTLCGENF [P14K], for which the protein stability index is 3.31.

As for HLTRHQRTHTGEKTYKCTLCGENF [P14T], the protein stability index worked out at 2.88.

As for HLTRHQRTHTGEKYYKCTLCGENF [P14Y], the protein stability index is 3.04.

Regarding HLTRHQRTHTGEKIYKCTLCGENF [P14I], the protein stability index stood at 2.9.

In the case of HLTRHQRTHTGEKWYKCTLCGENF [P14W], the protein stability index was 3.26.

Regarding HLTRHQRTHTGEKQYKCTLCGENF [P14Q], the protein stability index came out at 3.14.

As for HLTRHQRTHTGEKFYKCTLCGENF [P14F], the protein stability index was found to be 2.78.

On to HLTRHQRTHTGEKGYKCTLCGENF [P14G], for which the protein stability index amounted to 3.58.

With HLTRHQRTHTGEKVYKCTLCGENF [P14V], the protein stability index turned out to be 2.77.

As for HLTRHQRTHTGEKEYKCTLCGENF [P14E], the protein stability index was 3.21.

With HLTRHQRTHTGCKPYKCTLCGENF [E12C], the protein stability index stood at 2.41.

As for HLTRHQRTHTGDKPYKCTLCGENF [E12D], the protein stability index amounted to 2.68.

For HLTRHQRTHTGLKPYKCTLCGENF [E12L], the protein stability index is 2.29.

For HLTRHQRTHTGYKPYKCTLCGENF [E12Y], the protein stability index was determined as 2.84.

With HLTRHQRTHTGNKPYKCTLCGENF [E12N], the protein stability index amounted to 2.7.

In the case of HLTRHQRTHTGWKPYKCTLCGENF [E12W], the protein stability index turned out to be 1.87.

HLTRHQRTHTGMKPYKCTLCGENF [E12M]: the protein stability index was found to be 2.71.

Consider HLTRHQRTHTGTKPYKCTLCGENF [E12T], for which the protein stability index turned out to be 2.59.

In the case of HLTRHQRTHTGAKPYKCTLCGENF [E12A], the protein stability index stood at 3.53.

On to HLTRHQRTHTGKKPYKCTLCGENF [E12K], for which the protein stability index was 3.2.

For the variant MLTRHQRTHTGEKPYKCTLCGENF [H1M], the protein stability index worked out at 3.02.

For VLTRHQRTHTGEKPYKCTLCGENF [H1V], the protein stability index amounted to 2.46.

Take ILTRHQRTHTGEKPYKCTLCGENF [H1I]: the protein stability index turned out to be 2.19.

For the variant KLTRHQRTHTGEKPYKCTLCGENF [H1K], the protein stability index was found to be 2.74.

Consider ELTRHQRTHTGEKPYKCTLCGENF [H1E], for which the protein stability index was 2.97.

For the variant SLTRHQRTHTGEKPYKCTLCGENF [H1S], the protein stability index was 3.12.

Consider HLTRHQRTHTGEKPYKCTLCGENC [F24C], for which the protein stability index was determined as 4.06.

As to HLTRHQRTHTGEKPYKCTLCGENE [F24E], the protein stability index was 4.08.

Take HLTRHQRTHTGEKPYKCTLCGENT [F24T]: the protein stability index was found to be 3.85.

For the variant HLTRHQRTHTGEKPYKCTLCGENH [F24H], the protein stability index was 3.46.

As for HLTRHQRTHTGEKPYKCTLCGENP [F24P], the protein stability index worked out at 3.14.

For HLTRHQRTHTGEKPYKCTLCGENL [F24L], the protein stability index was determined as 3.44.

For the variant HLTRHQRTHTGEKPYKCTLCGENV [F24V], the protein stability index is 3.47.

As to HLTRHQRTHTGEKPYKCTLCGENK [F24K], the protein stability index was 3.12.

Consider HLTRHQRTHTGEKPYKCTLCGENM [F24M], for which the protein stability index turned out to be 3.58.

With HLTRSQRTHTGEKPYKCTLCGENF [H5S], the protein stability index worked out at 3.2.

Turning to HLTRCQRTHTGEKPYKCTLCGENF [H5C], the protein stability index was determined as 3.92.

On to HLTRAQRTHTGEKPYKCTLCGENF [H5A], for which the protein stability index is 2.69.

As to HLTRNQRTHTGEKPYKCTLCGENF [H5N], the protein stability index amounted to 2.34.

With HLTRMQRTHTGEKPYKCTLCGENF [H5M], the protein stability index was 2.28.

For the variant HLTRKQRTHTGEKPYKCTLCGENF [H5K], the protein stability index came to 2.98.

For HLTRYQRTHTGEKPYKCTLCGENF [H5Y], the protein stability index was 2.39.

For the variant HLTREQRTHTGEKPYKCTLCGENF [H5E], the protein stability index was found to be 2.96.

For HLTRHQRTHTGEKPYKCTCCGENF [L19C], the protein stability index amounted to 3.88.

As for HLTRHQRTHTGEKPYKCTICGENF [L19I], the protein stability index stood at 3.15.

Take HLTRHQRTHTGEKPYKCTVCGENF [L19V]: the protein stability index stood at 2.86.

Consider HLTRHQRTHTGEKPYKCTACGENF [L19A], for which the protein stability index amounted to 3.23.

With HLTRHQRTHTGEKPYKCTYCGENF [L19Y], the protein stability index came out at 2.39.

As to HLTRHQRTHTGEKPYKCTTCGENF [L19T], the protein stability index stood at 3.64.
